Test [1] concerns the target full-length Spike of SARS-CoV-2 (UniProtKB-P0DTC2) expressed on 293T cells (SARS-CoV-2, UniProt P0DTC2). Put plainly: flow cytometry on cells. (In general: In flow cytometry, cells or beads pass a laser one at a time.)
Test [2] addresses Spike of the SARS-CoV-2 Omicron (BA.1) variant expressed on 293T cells (SARS-CoV-2, Omicron BA.1, strain). Briefly: flow cytometry on cells.

B1: Ab188 recombinant monoclonal antibody (IgG) (antibody, V domains shown)
VH: EVQLVESGGGLVQPGGSLRLSCAASGFTFINYKMNWVRQAPGKGLEWVSYISSGSDAIYYADSVKGRFTISRDNAKNSLYLQMNSLRDEDTALYYCARGGGYNYGECMDVWGQGTTVTVSS
VL: not shown
Consider B1, for which the binding result in test [1] and in test [2] was “binds” throughout.

B2: Ab445 recombinant monoclonal antibody (IgG) (antibody, V domains shown)
VH: EVQLVESGGGVVQPGTSPRLSCAASGFTFSNSGMHWVRQAPGKGLEWVAVIWYDGSKKYYVDSVKGRFTISRDNSKNTLYLQMNSLRAEDTAVYYCARDGTVAVRGVMNPFFDYWGQGTLVTVSS
VL: DIQLTQSPSSLSASVGDRVTITCQASQDISNYLNWYQQIPGKAPKLLIYDASNLETGVPSRFSGSGSGTDFTFTISSLQPEDIATYYCQQYDNLPYTFGQGTKLEIK
Turning to B2, the binding result in test [1] is “binds”.

B3: Ab326 recombinant monoclonal antibody (IgG) (antibody, V domains shown)
VH: EVQLVESGGGVVQPGRSLRLSCAASGFTFSHYPMHWVRQAPGRGLEWVAVISYDGSNQHYVDSVKGRFTISRDNSKNTLYLQMNSLRAEDTAVYFCASLITMIRGVPDYWGQGTLVTVSS
VL: DIQMTQSPSSLSASVGDRVTITCRASQSISNYLNWYQQKPGKAPNLLIFAASSLQSGVPSRFSGSGSGTEFTLTISSLQPEDFAAYYCLQTYSTPRTFGQGTRLEIK
Take B3: the binding result in test [1] is recorded as “binds”.

B4: Ab354 recombinant monoclonal antibody (IgG) (antibody, V domains shown)
VH: QVQLVQSGAEVKKPGASVTVSCKASGFLFTGYYMHWVRQAPGQGLEWMGWINPNSGASNYTRKFQGRVTMTRDTSISATYMKLSRLTSDDTAVYYCARDLAFSMVRGALDYWGQGTLVTVSS
VL: QLVLTQPPSASGSPGQSVTISCTGTSSDVGGYNYVSWYQHHPGKAPKLMIYEVSKRPSGVPDRFSGSKSGNTASLTVSGLQAEDEADYYCNSYAGNNNWVFGTGTKVTVL
As for B4, the binding result in test [1] is listed as “binds”.

B5: Ab159 recombinant monoclonal antibody (IgG) (antibody, V domains shown)
VH: QVQLVESGGGLVKPGGSLRLSCAASGFTFNNAWMSWVRQAPGKGLEWVGRIKSKTDGGTTDYAAPVKGRFTFSRDDSKNTLYLQMSSLKTEDTALYYCTTADYDILTGTPASPYWGQGTLVTVSS
VL: DIQMTQSPSSLSASVGDRVTITCRASQSITNYLNWYQQKPGKAPKFLIYAASSLQGGVPSRFRGSGSGTDFTLTISSLQPEDFATYYCQQTYSTLWTFGQGTKVEIK
B5: in test [1], the binding result is recorded as “binds”.

B6: Ab496 recombinant monoclonal antibody (IgG) (antibody, V domains shown)
VH: EVQLVQSGPEVKKPGTSVKVSCKASGFIFTNSAVQWVRQARGQRLEWIGWIVVGSGNPNYAQKFQERVTITRDRSTSTAYMELSSLTSEDTAVYYCAAFPYYYDNSGSGPWGQGTLVTVSS
VL: DIQLTQSPSSLSASVGDRVTITCQASQDIRNNLNWYQQIPGKAPKLLIYDASNLETGVPSRFSGSASGTDFTFTISSLQPEDVATYYCQQYANLPPFTFGPGTKVDIK
Take B6: the binding result in test [1] was “binds”.

These data come from doi:10.1101/2022.06.21.496751 (bioRxiv, 2022).
